The supplement of paper PMC10126150
± gives the standard deviation of the averaged measurements.

Tested on: ATP
Assay: switch fluorescence ratio, 500 uM ATP over buffer (Cy3 cluster intensity, sum of 5 cycles each) (fold (ratio)); higher = stronger signal-on switching upon ATP binding; sequences stand for … in TCGTCGGCAGCGTCAGATGTGTATAAGAGACAGTTTTTTTTTTTTTTTTTTTTTTTTT…TC
Conditions: aptamer strand: ATP DNA aptamer (quencher-CACCTGGGGGAGTATTGCGGAGGAAGG + anchor), 100 nM annealed; ATP concentration: 500 uM
Outline: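 Exposure to 500 uM ATP lasted 15 min at 22 °C before imaging, and a selection-buffer image was taken beforehand, for Cy3-labelled switching-strand clusters on a modified Illumina MiSeq flow-cell annealed to 100 nM quencher-labelled ATP aptamer. Five buffer/ATP cycles were run with NaOH stripping and re-annealing between them. The fluorescence ratio per cluster is summed target-cycle over summed buffer-cycle Cy3 intensity, averaged per switch-domain sequence. Clusters outside 100-1000 RFU were excluded.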

| Sequence | switch fluorescence ratio |
| --- | --- |
| GATTTTTACT | 1.02 ± 0.024 |
| GGGGAAGTTT | 0.998 ± 0.027 |
| GCGGTTGCGT | 0.971 ± 0.057 |
| TCGGCACCAA | 1.05 ± 0.046 |
| ACGTCTTCAC | 1.069 ± 0.002 |
| ATTATGGGAT | 0.996 ± 0.029 |
| GGGTTATGCT | 0.99 ± 0.046 |
| ATGTTGGTAT | 1 ± 0.022 |
| ACGGTGACTA | 1.1 ± 0.023 |
| TTTAAACCCT | 1.03 ± 0.024 |
| GTTTGCCTGT | 0.9845 ± 0.0094 |
| ATTTTCGTTA | 1.04 ± 0.024 |
| TATATAGCGC | 0.983 ± 0.044 |
| GCCAGTAATA | 1.1 ± 0.034 |
| ACTGCTTGGT | 0.996 ± 0.017 |
| AAACGCTGGT | 1.01 ± 0.0087 |
| ATGGCCCGGC | 1.03 ± 0.017 |
| GCTCCATTTG | 0.983 ± 0.021 |
| TTCTTTAAAC | 0.992 ± 0.033 |
| GCGGGGGTAC | 1.11 ± 0.077 |
| TTATTGTTTA | 0.99 ± 0.029 |
| TCGGGCTGGG | 1.03 ± 0.0069 |
| AATTAGCATC | 1.06 ± 0.044 |

| Sequence | switch fluorescence ratio |
| --- | --- |
| AAGTGCGGGA | 0.9967 ± 0.0086 |
| CGGCTGTGGT | 1.01 ± 0.03 |
| CGCTGGGGTT | 0.9962 ± 0.0047 |
| TAATGTATTT | 1.01 ± 0.02 |
| GGAGTGCTGG | 0.995 ± 0.032 |
| AAGCTTTGGA | 0.983 ± 0.012 |
| GGGTGAGTAG | 1.02 ± 0.067 |
| GGTATCACCT | 1.04 ± 0.034 |
| TTTCGTCAGG | 0.997 ± 0.038 |
| TTAGTCTGGG | 1 ± 0.039 |
| AAGGGATTGG | 0.981 ± 0.031 |
| GGTAAAGGGG | 0.991 ± 0.058 |
| TGAATAGGGA | 0.982 ± 0.05 |
| TTTACTAGCA | 1.04 ± 0.11 |
| TGGGGGTTCT | 1.02 ± 0.057 |
| CTGGCGTATG | 0.997 ± 0.036 |
| AATTAACGGG | 1.02 ± 0.019 |
| ATACTCGCGT | 1.014 ± 0.01 |
| GTGGTATGTC | 1.01 ± 0.07 |
| GGGAATTTTT | 1 ± 0.053 |
| TGTACTGGGG | 1.003 ± 0.0094 |
| CTCTGGGGTA | 1.05 ± 0.031 |
| AAGTCGCTGT | 1.02 ± 0.016 |

| Sequence | switch fluorescence ratio |
| --- | --- |
| GTTAAAGGTA | 0.962 ± 0.019 |
| GATTTCATTT | 1.01 ± 0.04 |
| GTCAGAGTGG | 0.991 ± 0.024 |
| CAGAGGGGGT | 0.988 ± 0.017 |
| ATGGGGACCT | 1.17 ± 0.17 |
| GGTTGATGTT | 0.969 ± 0.059 |
| AGGTTGCGGG | 1 ± 0.014 |
| CGCCGTGTCA | 1.02 ± 0.068 |
| CGTATTTAGT | 0.98 ± 0.035 |
| TCTTCTATCT | 0.985 ± 0.039 |
| GATTTATGAG | 0.9668 ± 0.0067 |
| TCAGCGGGAG | 1.012 ± 0.0016 |
| TAGGGTGCGG | 1.03 ± 0.021 |
| GGGGAAGGGG | 1.03 ± 0.058 |
| ACATACTGCG | 1.323 ± 0.0038 |
| ATACGGGATT | 1.044 ± 0.0064 |
| AGTCAGATGG | 0.981 ± 0.025 |
| TCCCTGTTGC | 1.09 ± 0.045 |
| TGGGGAGTGT | 0.9849 ± 0.0076 |
| CGGTATATTT | 0.9712 ± 0.0058 |
| AACGGACAAA | 1.2 ± 0.052 |
| TTATACATT | 1.02 ± 0.075 |
| AAGTTTGAGT | 0.982 ± 0.022 |

| Sequence | switch fluorescence ratio |
| --- | --- |
| CCGTTGAGGG | 1.01 ± 0.086 |
| TCATTCGGGG | 0.973 ± 0.016 |
| TGGTTTTTTA | 0.993 ± 0.025 |
| CTGAGTTTGG | 1.07 ± 0.061 |
| TGGGACTTAG | 1.017 ± 0.0022 |
| ATGTGGCTGA | 1.021 ± 0.0038 |
| GGGCCCGCAA | 5.05 ± 0.21 |
| TTAAGCTGGC | 1.05 ± 0.056 |
| GCTGATTTGT | 0.989 ± 0.038 |
| CCTAATGTAA | 1.08 ± 0.027 |
| CTGGAGGTTG | 0.998 ± 0.041 |
| GTGATTTGGG | 1.01 ± 0.0076 |
| ATTTATAGAT | 0.979 ± 0.028 |
| TTTTGACCGC | 1.09 ± 0.061 |
| GTGTAATAGG | 0.9713 ± 0.0056 |
| AGGGGCAGCT | 0.977 ± 0.024 |
| AATCGTTTTT | 1.02 ± 0.12 |
| ACTGGTGACT | 1.01 ± 0.037 |
| AGGGGCACTC | 0.992 ± 0.028 |
| TTTTCTATAT | 1.01 ± 0.065 |
| TGGTGGCCGC | 0.982 ± 0.032 |
| GGTGTGTTTT | 0.981 ± 0.048 |
| TTTCTTTAGT | 1 ± 0.04 |

| Sequence | switch fluorescence ratio |
| --- | --- |
| CTTGGGGCTC | 0.9457 ± 0.0082 |
| GTTTAGAAAG | 1.01 ± 0.017 |
| GGGTCTCGAG | 0.9866 ± 0.0096 |
| CAGTAATTGA | 1 ± 0.026 |
| TGATGGTTTA | 0.996 ± 0.03 |
| TATTACCCAA | 1.05 ± 0.025 |
| GGAGCCCCGA | 0.9814 ± 0.0076 |
| TCAAATACG | 1.057 ± 0.009 |
| TCTTTATGTG | 0.998 ± 0.016 |
| TAAAGGTATG | 1.02 ± 0.013 |
| TTGGGGGACA | 1.01 ± 0.014 |
| TTGGATGTCT | 1.008 ± 0.0072 |
| TTTCGGTTGG | 0.999 ± 0.032 |
| ACATAGTTTT | 0.9994 ± 0.0075 |
| ACCGGTGCTG | 0.98 ± 0.042 |
| AGTTCAATT | 0.9971 ± 0.0032 |
| TGCGGGTGAT | 0.9857 ± 0.004 |
| TGGCCGCGGA | 1.01 ± 0.03 |
| AATATGGTTT | 0.966 ± 0.02 |
| TGATATCACT | 0.996 ± 0.043 |
| AATCAAATTA | 0.985 ± 0.025 |
| ACACGGGGAA | 1.0184 ± 0.00046 |
| GAGGGACTTG | 0.98 ± 0.012 |

| Sequence | switch fluorescence ratio |
| --- | --- |
| TTGAGGTTGA | 0.994 ± 0.029 |
| CACCAGGGCT | 1.6 ± 0.051 |
| TCGTGTTCGA | 1.001 ± 0.0094 |
| TAGAAGGCTT | 0.9989 ± 0.0076 |
| CGATGATATT | 1.02 ± 0.053 |
| CCCCTGGAAT | 1.08 ± 0.03 |
| GGATTCTGGA | 0.991 ± 0.031 |
| GAGGGCCGCG | 0.997 ± 0.051 |
| CCAGGCTATT | 1.04 ± 0.026 |
| TCCATGTTTT | 1.14 ± 0.22 |
| GGGGAATTTG | 1.01 ± 0.041 |
| TGAAGTTCGC | 0.969 ± 0.021 |
| AACTTGTTAG | 1.01 ± 0.016 |
| GCACCAAGAA | 1.03 ± 0.014 |
| CCACACGAGA | 1.18 ± 0.066 |
| TTTTCAAGAG | 1.019 ± 0.01 |
| GCTAGAAGTA | 1.02 ± 0.049 |
| GTAAGGAGGT | 0.976 ± 0.023 |
| CGGGATGTCA | 0.955 ± 0.038 |
| AAGGCAACGC | 0.98 ± 0.056 |
| GAGATGCGAG | 0.963 ± 0.021 |
| AAGGGCCTGG | 0.982 ± 0.029 |
| GGTTATGAAT | 1 ± 0.015 |

| Sequence | switch fluorescence ratio |
| --- | --- |
| TGGTAAAGTA | 0.991 ± 0.02 |
| CCAGGGTGGG | 1.03 ± 0.12 |
| CTCGGCTTGT | 1.05 ± 0.044 |
| GATTGGCCCG | 1.11 ± 0.13 |
| GGAAATATCG | 0.989 ± 0.021 |
| TTTTGAGTGA | 0.954 ± 0.041 |
| TTGGTTGGGA | 1 ± 0.042 |
| GACGGTAAAA | 1.04 ± 0.015 |
| GGACACCGGG | 1.04 ± 0.015 |
| CCCAATTATT | 1.016 ± 0.0048 |
| AAGTCGGTGG | 0.987 ± 0.07 |
| TAGGCTCGGG | 0.99 ± 0.038 |
| ATCATGACTG | 1.015 ± 0.005 |
| TCGTTTAATT | 0.994 ± 0.04 |
| GGCTCGGCAG | 1.05 ± 0.043 |
| GAGATAAGAG | 1.01 ± 0.022 |
| CGGGGGGTCA | 1.01 ± 0.018 |
| TTTTCGGTCA | 0.976 ± 0.026 |
| CGATTCTTTT | 0.979 ± 0.01 |
